Results published in paper PMC5655446.

Molecular target: Vibrio cholerae ApbE (alternative pyrimidine biosynthesis protein), recombinant, without the leader sequence (Vibrio cholerae) (UniProt A5F5Y3)
Sequence (A5F5Y3 18-334): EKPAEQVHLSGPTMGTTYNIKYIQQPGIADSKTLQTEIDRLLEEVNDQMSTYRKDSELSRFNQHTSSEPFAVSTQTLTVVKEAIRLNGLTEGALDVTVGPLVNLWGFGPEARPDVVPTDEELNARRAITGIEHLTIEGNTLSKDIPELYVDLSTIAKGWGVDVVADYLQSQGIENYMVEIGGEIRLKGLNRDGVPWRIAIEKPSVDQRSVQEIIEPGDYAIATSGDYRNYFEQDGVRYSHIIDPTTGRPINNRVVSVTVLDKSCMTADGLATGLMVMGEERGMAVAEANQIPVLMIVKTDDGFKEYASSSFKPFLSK

## Vibrio cholerae NqrC (subunit C of Na+-NQR), soluble, without the N-terminal transmembrane helix (domain or fragment)
  Km for NqrC in the steady-state flavin transfer activity of ApbE (NqrC varied, FAD 1 mM, pH 9.0): > 100 μM
